Assay [1] deals with T1, phospholamban (PLN), wild type, in mouse heart (mouse), P61014.
T1 chain: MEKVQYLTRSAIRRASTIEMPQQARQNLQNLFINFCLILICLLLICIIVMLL
The assay can be described thus: SDS-PAGE and western blot. To be noted: remark: other sources report otherwise. In general terms: In western blotting, separated proteins are transferred to a membrane and probed.

In assay [2] the target is T2, synthetic full-length PLN, P61014.
T2 chain: T1 chain
As to the kind of experiment: SDS-PAGE. To be noted: remark: other sources report otherwise.

B1: phospholamban (PLN), wild type, in mouse heart, P61014 1-52 (natural protein)
chain: T1 chain
The term stoichiometry N denotes a count of units in the complex or per binding partner. For the molecule B1, the stoichiometry N in assay [1] worked out at 5.

B2: synthetic full-length PLN, P61014 1-52 (natural protein)
chain: T1 chain
Take B2: the stoichiometry N in assay [2] worked out at 5.

These data come from PMC10318394.
